We go through two molecules from article PMC9268357 (Science (New York, N.y.), 2021).

The target in experiment [1] is T1, prefusion-stabilized MERS-CoV S ectodomain trimer (MERS-CoV, isolate not shown; stand-in …, UniProt K9N5Q8, stabilised). Put plainly: cell-based or functional assay.
In experiment [2] the target is T2, prefusion-stabilized SARS-CoV S ectodomain trimer (SARS-CoV, isolate , UniProt P59594, stabilised). Kind of experiment: cell-based or functional assay.
Experiment [3] deals with T1, prefusion-stabilized MERS-CoV S …. Kind of experiment: SPR; S2P6 Fab fragment and S glycoproteins (fig. S1, G and H). The following applies: both partners purified.
Experiment [4] addresses T2, prefusion-stabilized SARS-CoV S …. Described as above. The following applies: both partners purified.

B1: S2P6 monoclonal antibody (antibody, V domains shown)
VH: EVQLVQSGAEVKKPGASVKVSCKASGYTFTSQYMHWVRQAPGQGLEWIGIINPSGVHTSYAQKFQGRVTLTRDTSTSTLYMELSSLRSEDTAVYYCARGSPKGAFDYWGQGTLVTVSS
VL: not shown
notes: also called S2P6 mAb; S2P6 IgG; copies: 2 + 2
On to B1, for which, in experiment [1], the “neutralization of VSV pseudotyped with MERS-CoV S, IC50” value was 17.1 µg/mL. Further, in experiment [2], the “neutralization of VSV pseudotyped with SARS-CoV S, IC50” value stood at 2.4 µg/mL.

B2: S2P6 Fab fragment (Fab, V domains shown)
VH: B1 VH
VL: not shown
What is called Kd is a measure of binding affinity in units of concentration. Read a low Kd as higher affinity. As for B2, the Kd in experiment [3] worked out at 12 nM; in experiment [4] it was 7 nM.
